± gives the standard deviation of the averaged measurements.
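Also: PSI is a weighted mean of sequencing reads over stability bins, variants kept only with over 10 reads, mCherry proximal and sfGFP distal, peptide attached via GGGS linker.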

This series deals with Saccharomyces cerevisiae. In words: protein stability index of tFT-peptide fusion (C-terminal peptide) (PSI (0-1 scale)); higher = more stable (slower turnover). The note with it: genetic background: wild type; temperature: 30 C.
In the case of KKIKKHEKKKNK, the protein stability index is 0.721 ± 0.053.
The sequence KKIRKKLKKMKM returned a protein stability index of 0.644 ± 0.053.
To KKITTDNKKNKI belongs 0.651 ± 0.067; to KKKEKKRKEEKN, 0.824 ± 0.052; to KKKIKNKTNEEK, 0.647 ± 0.038.
The same measure for KKKKEEKNRQES: 0.7 ± 0.077; for KKKKIKKKTKKE: 0.667 ± 0.027; for KKKKKEQKTNQT: 0.697 ± 0.022.
To KKKKKHTQYKRK belongs 0.6997 ± 0.0026.
Take KKKKKKKIRKKI: the protein stability index amounted to 0.682 ± 0.029.
KKKKKKKKDNKL showed a protein stability index of 0.781 ± 0.099.
To KKKKKKKKHEQK belongs 0.678 ± 0.09; to KKKKKKKKKKRK, 0.685 ± 0.01.
As for KKKKKKKKKNKK, the protein stability index was determined as 0.679 ± 0.048.
In turn, KKKKKKKKTKKR registered a protein stability index of 0.637 ± 0.044.
KKKKKKKTQTNK came in with a protein stability index of 0.692 ± 0.015.
For KKKKKKNKKKTQ, the protein stability index came to 0.734 ± 0.04.
Sequence KKKKKKQKKKIQ came in with a protein stability index of 0.741 ± 0.05.
KKKKKNKKKTIK displayed a protein stability index of 0.6886 ± 0.0046.
Sequence KKKKKNKKNKKY displayed a protein stability index of 0.709 ± 0.038.
As to KKKKKNSRKKQQ, the protein stability index was found to be 0.7108 ± 0.0018.
Turning to KKKKKNTKVYNE, the protein stability index stood at 0.703 ± 0.13.
For the sequence KKKKKQIKKQKK, the protein stability index came to 0.586 ± 0.02.
To KKKKKQKKKKRK belongs 0.682 ± 0.013; to KKKKKVKITGKK, 0.766 ± 0.018.
In turn, KKKKNKQKQIET came in with a protein stability index of 0.759 ± 0.07.
KKKKQKKNKKKK had a protein stability index of 0.6602 ± 0.0052.
The sequence KKKKSKIKKKRE displayed a protein stability index of 0.665 ± 0.042.
To KKKKTKKKEQKE belongs 0.693 ± 0.012; to KKKPKKQRKNKR, 0.684 ± 0.013.
KKKQKTIYRQKE had a protein stability index of 0.64 ± 0.089.
KKKRKRKRSRRK displayed a protein stability index of 0.639 ± 0.03.
Take KKKRTKKEREKK: the protein stability index is 0.6612 ± 0.0032.
Sequence KKNKKNKKKKKN showed a protein stability index of 0.63 ± 0.082.
KKPVALVESRRV gave a protein stability index of 0.662 ± 0.055.
On to KKQKKKTKANKT, for which the protein stability index came out at 0.673 ± 0.041.
The sequence KKREEKKEKRKR showed a protein stability index of 0.643 ± 0.054.
KKRGNYKTTESN showed a protein stability index of 0.687 ± 0.0076.
To KKRILNRKKEER belongs 0.705 ± 0.052.
To KKRMKKKTKNKN belongs 0.652 ± 0.019; to KKRNMRINSKKQ, 0.7 ± 0.022.
Consider KKRRNRIKKSAK, for which the protein stability index amounted to 0.689 ± 0.14.
Turning to KKRVSKETDKVK, the protein stability index is 0.693 ± 0.027.
KKSKDKRNPKKK registered a protein stability index of 0.692 ± 0.028.
As for KKTKEQEGEKTE, the protein stability index was found to be 0.679 ± 0.026.
With KKTKKKQQGKIQ, the protein stability index is 0.702 ± 0.017.
The sequence KKTKNKKKQNGK showed a protein stability index of 0.6863 ± 0.0012.
To KKTPKKKHKKKR belongs 0.679 ± 0.12; to KKYIEKKFNIQK, 0.664 ± 0.03.
KKYKKKKKRARY: the protein stability index came out at 0.698 ± 0.019.
Regarding KLAHVKIKKTGK, the protein stability index is 0.652 ± 0.018.
Take KLKIINENKLQN: the protein stability index stood at 0.618 ± 0.087.
With KMGGKRTKKIGQ, the protein stability index is 0.694 ± 0.086.
With KNADHPRKDEQP, the protein stability index came out at 0.661 ± 0.095.
KNEESTKREGHF came in with a protein stability index of 0.669 ± 0.063.
Regarding KNIKENIGDKNK, the protein stability index is 0.646 ± 0.06.
The sequence KNKEISQIYIKN registered a protein stability index of 0.662 ± 0.027.
In turn, KNKIRLLNKTSK registered a protein stability index of 0.6717 ± 0.0014.
Sequence KNKKKNTIKKNK returned a protein stability index of 0.684 ± 0.018.
Regarding KNKREKKKENTK, the protein stability index is 0.682 ± 0.0078.
KNKVTRNEKGIT displayed a protein stability index of 0.639 ± 0.047.
For KNNKKQRNRTGE, the protein stability index came out at 0.669 ± 0.017.
As for KNNKSERIEKEQ, the protein stability index was 0.701 ± 0.08.
For KNNNREKLRQSM, the protein stability index was found to be 0.623 ± 0.056.
KNTKRQIKKNKK displayed a protein stability index of 0.662 ± 0.17.
To KNWRMKKDHKQA belongs 0.657 ± 0.024.
The sequence KQERCCEEREEK had a protein stability index of 0.729 ± 0.024.
KQHTEQIDRRTG gave a protein stability index of 0.6635 ± 0.0036.
The same measure for KQKKAKKQKKKK: 0.69 ± 0.099; for KQKKKIKIQNKT: 0.689 ± 0.12; for KQKKNEENTKKT: 0.735 ± 0.064.
KQKKNKKKKQNR showed a protein stability index of 0.699 ± 0.036.
With KQLEKYKDIRRK, the protein stability index amounted to 0.665 ± 0.061.
As for KQNKIIKKRKKK, the protein stability index is 0.659 ± 0.067.
The sequence KQRGTRGNKANE displayed a protein stability index of 0.6231 ± 0.0058.
The sequence KQRKIKKNIINH had a protein stability index of 0.707 ± 0.015.
In turn, KQRKSESGSNTV registered a protein stability index of 0.686 ± 0.057.
As for KREARGERGKGE, the protein stability index is 0.644 ± 0.04.
KRETKSKGQAQA displayed a protein stability index of 0.602 ± 0.042.
KRGIHKLVNEVG yielded a protein stability index of 0.683 ± 0.011.

Values taken from the supplement of paper PMC10724198.
